Assay results taken from patent publication US20230094463A1, “ANTIBODIES THAT DISRUPT THE INTERACTION OF GAL3 AND INSULIN RECEPTOR OR INTEGRINS AND METHODS OF USE THEREOF” (TrueBinding, Inc., priority 2019, published 2023).

B1: 23H9.2E4: anti-Gal3 monoclonal antibody (antibody, V domains shown)
VH: QIQLVQSGPELKKPGETVKISCKASGYTFTTYAMSWVKQAPGKGLKWMGWINTYSGVPTYADDLKGRFAFSLETSASTAYLQINNLKNEDTATYFCARGPYAMDYWGQGTSVTVSS
VL: DIQMTQTTSSLSASLGDRVTISCSASQGINNYLNWYQQKPDGTVKLLIYYASSLHSGVPSRFSGSGSGTDYSLTISNLEPEDIATYYCQQYSQVPYTFGSGTKLEIK
B2: mTB001: anti-GAL3 antibody used in mouse models (antibody)
heavy: QIQLVQSGPELKKPGETVKISCKASGYTFTNYGMNWVKQAPGKGLKWMGWINTNTGEPTYVEEFKGRFAFSLETSASTAYLQINNLKNEDTATYFCAPYDNFFAYWGQGTLVTVSAAKTTPPSVYPLAPVCGDTTGSSVTLGCLVKGYFPEPVTLTWNSGSLSSGVHTFPAVLQSDLYTLSSSVTVTSSTWPSQSITCNVAHPASSTKVDKKIEPRGPTIKPCPPCKCPAPNAAGGPSVFIFPPKIKDVLMISLSPIVTCVVVDVSEDDPDVQISWFVNNVEVHTAQTQTHREDYNSTLRVVSALPIQHQDWMSGKEFKCKVNNKDLGAPIERTISKPKGSVRAPQVYVLPPPEEEMTKKQVTLTCMVTDFMPEDIYVEWTNNGKTELNYKNTEPVLDSDGSYFMYSKLRVEKKNWVERNSYSCSVVHEGLHNHHTTKSFSRTPGK
light: DIVITQDELSNPVTSGESVSISCRSSKSLLYKDGKTYLNWFLQRPGQSPQLLIYLMSTHASGVSDRFSGSGSGTDFTLEISRVKAEDVGVYYCQQLVDYPLTFGAGTKLELKRADVAPTVSIFPPSSEQLTSGGASVVCFLNNFYPKDINVKWKIDGSERQNGVLNSWTDQDSKDSTYSMSSTLTLTKDEYERHNSYTCEATHKTSTSPIVKSFNRNEC

Experiments:
[1] = target: T1, Gal3 peptides (SEQ ID NOs: 3-26) (Homo sapiens, UniProt P17931); assay: Gal3 peptide library binding ELISA (epitope mapping)
T1 construct: a library of 24 amino acid peptides representing portions of Gal3; purchased LifeTein custom order
Method: (§1) To identify the epitopes to which Gal3 antibodies with and without Gal3-INSR blocking activity bound, a library of 24 amino acid peptides representing portions of Gal3, depicted in FIG. 27, was produced and the ability of each peptide to bind Gal3 antibodies was evaluated by ELISA. At least 2 μg/ml of hGal3 peptide in 50 μl of PBS or 0.1 μg/ml of full-length human Gal3 protein (GenScript) and human Galectin-3 protein (Acro Biosystems, GA3-H5129) were diluted in PBS (Corning, 21-030-CM) to concentrations of at least 2 μg/ml or 0.1 μg/ml, respectively, and added to the wells of a 96-well ELISA plate (Thermo Fisher, 44-2404-21). After incubating the plate at 4° C. overnight, the plate was washed three times with PBST (PBS with 0.05% Tween 20 [VWR, 0777]). The plate was then blocked for an hour with 2% BSA (EMD Millipore, 126609) in PBST at room temperature with gentle rocking. Thereafter, the 2% BSA in PBST was discarded and human Galectin-3 hybridoma supernatants or antibodies were diluted in 2% BSA in PBST to concentrations of at least 0.1 μg/ml and added to the wells. The plate was incubated for an hour at room temperature with gentle rocking and then washed three times with PBST. Afterwards, Goat Anti-Mouse IgG-HRP (Jackson ImmunoResearch, 115-036-1461) or Goat Anti-Rat IgG HRP (Abcam, ab205720) diluted in 2% BSA in PBST (1:4000) were added to the wells. The plate was incubated for 30 minutes to 1 hour at room temperature with gentle rocking and then washed three times with PBST. TMB substrate (Thermo Scientific, 34029) was then added to each well. The reaction was stopped with 1M HCl (JT Baker, 5620-02) and read using a plate reader (Molecular Devices) at absorbance of 450 nm.
(§2) Human Gal3 peptides (LifeTein, custom order) and human Gal3 proteins (R&D Systems, 8259-GA; TrueBinding, QCB200349) were diluted in PBS (Corning, 21-030-CM) to concentrations of at least 100 μg/mL (peptides) or 1 μg/mL (proteins), and added to the wells of several 96-well ELISA plates (Thermo Fisher, 44-2404-21). After incubating the plates at 4° C. overnight, the plates were washed three times with PBST (PBS with 0.05% Tween 20 [VWR, 0777]). The plates were then blocked for an hour with 2% BSA (EMD Millipore, 126609) in PBST at room temperature with gentle rocking. Thereafter, the 2% BSA in PBST was discarded and Gal3-binding antibodies (reformatted hIgG4 [S228P]) were diluted in 2% BSA in PBST to concentrations of 5 μg/mL and added to the wells. The plates were incubated for an hour at room temperature with gentle rocking and then washed three times with PBST. Afterwards, Peroxidase AffiniPure F(ab′)2 Fragment Goat Anti-Human IgG (H+L) polyclonal antibody (Jackson ImmunoResearch, 109-036-003), was diluted in 2% BSA in PBST (1:4000) and added to the wells. The plates were incubated for 1 hour at room temperature with gentle rocking and then washed three times with PBST. TMB substrate (Thermo Scientific, 34029) was then added to each well. The reaction was stopped with 1M HCl (JT Baker, 5620-02) and read using a plate reader (Molecular Devices) at absorbance of 450 nm.

[2] = test system: Gal3 peptides (SEQ ID NOs: 3-26); assay: as above; design: species or system human; settings: Peptide 8 (SEQ ID NO: 10)
Method: as §1, §2

[3] = target: T2, human Gal3 (Homo sapiens, UniProt P17931); assay: Antibody binning assays (competition for binding to Gal3); settings: binning per Examples 3 and 18
T2 construct: His; purchased AcroBio GA3-H5129
T2 sequence (P17931 whole entry): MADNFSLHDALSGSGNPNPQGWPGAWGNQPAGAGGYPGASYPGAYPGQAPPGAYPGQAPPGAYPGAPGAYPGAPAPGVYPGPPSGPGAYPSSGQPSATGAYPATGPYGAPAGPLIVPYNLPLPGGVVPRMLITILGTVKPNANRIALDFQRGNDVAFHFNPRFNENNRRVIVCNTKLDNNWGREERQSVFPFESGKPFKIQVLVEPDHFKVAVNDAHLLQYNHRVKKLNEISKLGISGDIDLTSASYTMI
Method: To determine whether Gal3-binding antibodies with Gal3-INSR blocking activity bind to the same or overlapping regions of the Gal3 molecule, antibody binning assays were performed to assess the ability of antibodies to simultaneously bind Gal3. Amine-reactive probes were loaded onto a Gator biosensor (Probe Life, Palo Alto, Calif.), equilibrated in dH20 for 60 seconds, dipped into 100 μl EDC 0.2M/NHS 0.05M activation buffer for 30 seconds, then dipped into a solution of […] human Gal3-His in 10 mM NaOAc buffer, pH 5 until binding was saturated, and quenched in 1 M ethanolamine pH 8.5 for 300 seconds. Following Gal3-His loading, tips were dipped in 20 μg/mL saturating antibody, then successively dipped into 5 μg/mL competing antibody.
The epitope binning assay was done in a sandwich format on the high-throughput SPR-based Carterra LSA unit (CarterraBio, Salt Lake City, Utah). First, the purified antibodies were diluted to 10 μg/ml concentration in 10 mM NaOAc (pH 5.0) and then were covalently coupled via amine group to HC200M chip activated by EDC and S-NHS to immobilize antibodies to different positions of a 384-spot array. One hundred thirty-eight binning cycles were run on the array of immobilized antibodies. In each cycle, first, human Gal3 (AcroBio GA3-H5129) was injected over the entire array to bind to different antibodies (primary antibody), followed by one antibody (secondary antibody) selected among the panel of 150 anti-GAL3 antibodies tested. At the end of each cycle, the array was regenerated by 10 mM Glycine (pH 2.0) to remove bound antigen and secondary antibody from the array. The data analysis was done using the Epitope software by CarterraBio.

[4] = test system: Jurkat T cell adhesion; assay: Jurkat T cell adhesion assay on Gal-3/antibody coated plates; type: cell-based; settings: recombinant Gal-3 pre-incubated with antibody, 10^5 cells per well
Method: To evaluate whether anti-GAL3 antibodies that block GAL3 interaction with integrin negatively influence lymphocyte homing (an important aspect in development of inflammatory diseases), a cell-based assay utilizing lymphocyte Jurkat T cell line was employed. Briefly, recombinant Gal-3 ([…] in PBS) and antibody ([…] in PBS) were incubated for 30 minutes on ice prior to the coating mixture transfer to the 96-well plate and additional overnight incubation. The coating mixture was then removed and the plate was blocked with 0.5% BSA for 45 minutes. Jurkat T cells (10^5 cells per well) were plated in serum free RPMI. Following thirty-minute incubation, the cells were gently washed once with serum free medium and fixed with 4% PFA for 10 minutes. The adhered cells were further stained with SYTOX™ Orange Nucleic Acid staining (ThermoFisher, S11368) and analyzed by Cytation 1 Cell Imaging Multi-Mode Reader (Biotek).

[5] = test system: NOD/ShiLtJ mice; settings: 10 mg/kg twice a week
Excerpt: To assess the therapeutic potential of anti-GAL3 antibody in Type I diabetes, a mouse model of diabetes type I was used. Briefly, seven-weeks-old female NOD/ShiLtJ mice (Jackson lab (001976)) and control group animals NOR/LtJ (Jackson Lab (002050)) were housed in standard disposable cages with filter tops at room temperature with a 6:00-18:00 day-night cycle. Mice were allowed to rest for a week before initiating glucose monitoring. The antibody treatment was initiated when glucose levels reach 250-400 (mg/dL) for two consecutive days. To establish glucose levels, the blood samples were collected from tail vein of the experimental animals following housing in clean cages with water and no food for 4-6 hours. The collected samples were analyzed by HemoCue Glucose 201 Analyzer and cuvettes (Mercedes Scientific 110706). […] At the end stage, the plasma samples were collected from symptomatic animals. C-peptide levels were determined by Alpco Mouse C-peptide ELISA kit (Alpco, 80-CPTMS-E01).

Row | Molecule | binding to Gal3 Peptide 1 ([1]; Peptide 1 (SEQ ID NO: 3), amino acids 1-20 of Gal3) | binding to Gal3 Peptide 6 ([1]; Peptide 6 (SEQ ID NO: 8), amino acids 51-70 of Gal3) | binding to Gal3 Peptide 7 ([1]; Peptide 7 (SEQ ID NO: 9), amino acids 61-80 of Gal3) | binding to Gal3 Peptide 8 [2] | epitope bin (competitive binding to Gal3) [3] | inhibition of Jurkat T cell adhesion [4] | levels of blood glucose [5] | survival [5] | C-peptide levels ([5]; plasma ELISA)
1 | B1 | bind and bound | bind and bound | bind and bound | bind | bin 3 | did not inhibit |  |  | 
2 | B2 |  |  |  |  |  |  | stabilizing the levels of blood glucose | prolonged survival | restoring C-peptide levels
